Our source for the binding result and Kd values is article PMC2555995 (The Journal of Biological Chemistry, 2008).

The target in one assay is T1, His6-Nab2 (S. cerevisiae, UniProt P32505 1-525).
T1 sequence (looked up): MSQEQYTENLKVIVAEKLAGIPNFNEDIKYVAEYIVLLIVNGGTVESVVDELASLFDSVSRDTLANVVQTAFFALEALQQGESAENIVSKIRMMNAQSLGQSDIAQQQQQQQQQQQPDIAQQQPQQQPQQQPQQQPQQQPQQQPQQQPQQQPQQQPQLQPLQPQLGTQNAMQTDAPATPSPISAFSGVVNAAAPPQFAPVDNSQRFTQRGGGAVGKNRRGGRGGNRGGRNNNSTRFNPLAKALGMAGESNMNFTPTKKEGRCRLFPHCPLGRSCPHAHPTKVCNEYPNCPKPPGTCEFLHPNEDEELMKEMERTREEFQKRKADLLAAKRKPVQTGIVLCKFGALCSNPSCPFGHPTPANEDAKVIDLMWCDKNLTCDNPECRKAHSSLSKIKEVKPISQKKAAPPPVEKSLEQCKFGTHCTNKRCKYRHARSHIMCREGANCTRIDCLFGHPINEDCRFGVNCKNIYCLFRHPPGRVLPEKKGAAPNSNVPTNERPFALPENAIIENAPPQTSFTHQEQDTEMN
The assay is described as follows: pull-down.

The target in assay [1] is His6-S-Tag-Mlp1-NBD (residues 1586–1768) (S. cerevisiae, UniProt Q02455 1586-1768). Put plainly: ELISA. In general terms: An ELISA detects its analyte on a solid surface through an enzyme-linked reagent.

Where a chain is given by its changes, count along the chain named. Names may count otherwise.

B1: GST-CT-Mlp1 (residues 1490–1875) (domain or fragment, S. cerevisiae, UniProt Q02455 1490-1875, looked up)
chain: AQERLNQPSNINMEEIKKKWESEHEQEVSQKIREAEEALKKRIRLPTEEKINKIIERKKEELEKEFEEKVEERIKSMEQSGEIDVVLRKQLEAKVQEKQKELENEYNKKLQEELKDVPHSSHISDDERDKLRAEIESRLREEFNNELQAIKKKSFDEGKQQAMMKTTLLERKLAKMESQLSETKQSAESPPKSVNNVQNPLLGLPRKIEENSNSPFNPLLSGEKLLKLNSKSSSGGFNPFTSPSPNKHLQNDNDKRESLANKTDPPTHLEPSFNIPASRGLISSSSTLSTDTNDEELTSNNPAQKDSSNRNVQSEEDTEKKKEGEPVKRGEAIEEQTKSNKRPIDEVGELKNDEDDTTENINESKKIKTEDEEEKETDKVNDENSI
On to B1, for which the binding result in the assay with His6-Nab2 is given as “binds”.

B2: GST-Nab2-N-WT (residues 1–97) (domain or fragment, S. cerevisiae, UniProt P32505 1-97, looked up)
chain: MSQEQYTENLKVIVAEKLAGIPNFNEDIKYVAEYIVLLIVNGGTVESVVDELASLFDSVSRDTLANVVQTAFFALEALQQGESAENIVSKIRMMNAQ
A word on the Kd: it is a measure of binding affinity in units of concentration. Low readings indicate tighter binding, high ones weaker binding. For B2, the Kd in assay [1] amounted to 1260 nM.

B3: GST-Nab2-N-F73W (residues 1–97) (domain or fragment, S. cerevisiae, UniProt P32505 1-97, looked up)
chain: B2 chain with F73W
The molecule B3 showed a Kd in assay [1] of 830 nM.

B4: GST-Nab2-N-F72D (residues 1–97) (domain or fragment, S. cerevisiae, UniProt P32505 1-97, looked up)
chain: B2 chain with F72D
For B4, the Kd in assay [1] worked out at 2310 nM.
